# Data reported in patent US20240368233A1 (University of Washington, published 2024).
# “And” between values parts separate entries of the source, which are not always exact repeats. Identical values can stand only once.
# T1: DF206
# T1 construct: Bivalent connector
# T1 chain: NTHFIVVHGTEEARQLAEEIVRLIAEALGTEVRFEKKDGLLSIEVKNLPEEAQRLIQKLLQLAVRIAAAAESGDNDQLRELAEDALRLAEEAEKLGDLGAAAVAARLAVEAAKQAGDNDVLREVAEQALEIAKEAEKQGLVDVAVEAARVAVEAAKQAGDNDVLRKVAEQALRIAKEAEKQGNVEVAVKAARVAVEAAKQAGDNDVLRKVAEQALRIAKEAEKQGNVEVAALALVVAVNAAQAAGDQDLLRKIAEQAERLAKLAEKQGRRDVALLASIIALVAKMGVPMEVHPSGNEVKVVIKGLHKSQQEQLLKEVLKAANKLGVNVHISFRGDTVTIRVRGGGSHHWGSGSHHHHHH
# T2: LHD206 B62-1
# T2 single chain, LHD206 chain B fused to DHR62: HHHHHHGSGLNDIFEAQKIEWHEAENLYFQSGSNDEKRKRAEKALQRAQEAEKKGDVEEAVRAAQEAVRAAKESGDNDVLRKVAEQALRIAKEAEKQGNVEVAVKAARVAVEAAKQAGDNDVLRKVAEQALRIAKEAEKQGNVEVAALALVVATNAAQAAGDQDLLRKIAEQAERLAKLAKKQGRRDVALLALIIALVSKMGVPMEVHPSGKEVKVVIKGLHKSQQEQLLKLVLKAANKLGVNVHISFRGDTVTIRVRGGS
# T3: 206B62-2
# T3 chain: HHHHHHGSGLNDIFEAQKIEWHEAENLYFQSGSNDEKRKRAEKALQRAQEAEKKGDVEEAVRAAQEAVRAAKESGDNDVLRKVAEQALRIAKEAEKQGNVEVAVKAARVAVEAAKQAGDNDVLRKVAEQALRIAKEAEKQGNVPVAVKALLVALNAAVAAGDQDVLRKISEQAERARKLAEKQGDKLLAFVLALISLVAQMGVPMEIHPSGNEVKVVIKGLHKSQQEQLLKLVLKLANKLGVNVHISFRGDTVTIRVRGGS
# T4: 284B
# T4 construct: also called LHD284 B; LHD284 chainB
# T4 chain: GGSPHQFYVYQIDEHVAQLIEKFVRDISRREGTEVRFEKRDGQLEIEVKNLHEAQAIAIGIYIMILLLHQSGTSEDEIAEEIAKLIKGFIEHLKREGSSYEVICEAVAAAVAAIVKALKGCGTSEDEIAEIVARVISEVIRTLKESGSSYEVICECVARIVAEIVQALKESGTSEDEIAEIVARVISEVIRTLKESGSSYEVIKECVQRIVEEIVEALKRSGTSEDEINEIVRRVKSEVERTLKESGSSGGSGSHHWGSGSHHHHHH
# T5: LHD101 chainA, split luciferase reporter construct
# T5 construct: not shown: N-terminal Strep-tag and sfGFP; GS-linker and smBiT or lgBiT
# T5 chain: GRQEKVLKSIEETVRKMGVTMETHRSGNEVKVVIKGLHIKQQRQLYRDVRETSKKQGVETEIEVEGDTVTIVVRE
# T6: 29B53
# T6 construct: also called LHD29B53
# T6 chain: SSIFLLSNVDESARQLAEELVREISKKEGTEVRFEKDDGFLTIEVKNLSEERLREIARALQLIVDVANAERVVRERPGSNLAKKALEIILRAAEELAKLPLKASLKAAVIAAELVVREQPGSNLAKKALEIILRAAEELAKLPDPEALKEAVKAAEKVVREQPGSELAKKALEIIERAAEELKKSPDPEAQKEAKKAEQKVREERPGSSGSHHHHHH
# T7: LHD101 chainB
# T7 construct: also called LHD101B
# T7 chain: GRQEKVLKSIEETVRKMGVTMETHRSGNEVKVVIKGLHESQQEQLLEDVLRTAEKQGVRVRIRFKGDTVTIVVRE
# T8: 101B62
# T8 construct: also called LHD101B62
# T8 chain: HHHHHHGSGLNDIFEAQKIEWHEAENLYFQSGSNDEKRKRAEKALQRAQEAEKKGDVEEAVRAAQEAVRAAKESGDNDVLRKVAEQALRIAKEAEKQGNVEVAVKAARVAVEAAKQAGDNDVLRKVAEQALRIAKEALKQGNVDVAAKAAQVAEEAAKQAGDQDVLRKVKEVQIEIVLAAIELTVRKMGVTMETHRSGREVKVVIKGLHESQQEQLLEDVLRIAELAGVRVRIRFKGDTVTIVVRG
# T9: 101B14
# T9 construct: also called LHD101 B14
# T9 single chain, LHD101 chain B fused to DHR14: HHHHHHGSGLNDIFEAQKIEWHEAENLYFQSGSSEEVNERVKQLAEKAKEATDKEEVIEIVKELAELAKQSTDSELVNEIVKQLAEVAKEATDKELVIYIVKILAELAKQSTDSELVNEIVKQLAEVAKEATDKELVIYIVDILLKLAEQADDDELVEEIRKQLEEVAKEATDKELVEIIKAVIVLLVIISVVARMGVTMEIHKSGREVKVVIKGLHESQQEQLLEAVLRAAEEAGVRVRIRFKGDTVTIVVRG
# T10: LHD101 B8
# T10 single chain, LHD101 chain B fused to DHR8: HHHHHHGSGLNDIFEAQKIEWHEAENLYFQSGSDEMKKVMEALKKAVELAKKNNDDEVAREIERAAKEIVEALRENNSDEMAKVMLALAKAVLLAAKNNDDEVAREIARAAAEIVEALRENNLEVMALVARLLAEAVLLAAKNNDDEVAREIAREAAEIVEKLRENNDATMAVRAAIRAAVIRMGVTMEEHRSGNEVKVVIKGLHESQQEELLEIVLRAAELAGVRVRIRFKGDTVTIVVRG
# T11: 101B4
# T11 construct: also called LHD101B4
# T11 chain: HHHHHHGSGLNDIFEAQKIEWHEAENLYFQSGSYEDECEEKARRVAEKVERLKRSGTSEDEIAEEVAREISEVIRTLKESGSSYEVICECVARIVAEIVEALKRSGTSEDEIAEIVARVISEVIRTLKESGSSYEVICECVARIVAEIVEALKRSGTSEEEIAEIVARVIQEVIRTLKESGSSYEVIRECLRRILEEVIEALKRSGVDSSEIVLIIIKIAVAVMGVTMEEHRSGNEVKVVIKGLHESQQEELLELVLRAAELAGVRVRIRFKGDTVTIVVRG
# T12: 101B82
# T12 chain: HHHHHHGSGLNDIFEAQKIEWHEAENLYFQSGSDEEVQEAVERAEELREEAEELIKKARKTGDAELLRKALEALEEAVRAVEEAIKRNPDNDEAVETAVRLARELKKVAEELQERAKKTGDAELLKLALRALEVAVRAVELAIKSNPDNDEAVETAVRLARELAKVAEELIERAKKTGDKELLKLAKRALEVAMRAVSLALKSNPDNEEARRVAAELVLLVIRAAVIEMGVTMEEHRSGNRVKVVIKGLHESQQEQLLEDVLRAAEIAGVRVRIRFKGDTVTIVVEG
# What was measured:
# DF206 = biological target: T1, DF206; assay: SEC of mixed components; trimer listed in Table 6
# LHD206 B62-1 = biological target: T2, LHD206 B62-1; assay: SEC binding assay (Superdex 200, normalised A230) of A, B and the mixture AB
# Procedure: (§1) Complexes and individual components were diluted in 20 mM Tris pH 8.0, 100 mM NaCl. After o/n equilibration of the mixtures at room temperature or 4 degrees C., 500 ul of sample was injected onto a Superdex™ 200 10/300 increase GL (dimers, linear assemblies) or Superose™ 6 increase 10/300 GL (symmetric assemblies) (all columns from GE healthcare) using the absorbance at 230 nm or 473 nm (for GFP tagged components) as read-out. Dimers were mixed at monomer concentrations of 5 μM or higher. Trimer and ABCD tetramer mixtures contained 5 μM of the bivalent connector, and 7.5 μM of each terminal cap (lower absolute concentrations with the same ratios were used for some trimers). ABCA tetramer mixtures contained 5 μM per bivalent connector and 15 μM terminal cap. The hexamer mixture contained 3 μM of components C and D, 3.6 μM of B and E, and 4.4 μM of A and F. The branched assembly shown in FIG. 4A contained 2.8 μM of the trivalent connector and 4 μM of each cap. For the exchange experiment shown in FIG. 5A, the ABC trimer was preincubated at concentrations of 6 μM B and 9 μM each of A and C. C′ was then added to reach a final concentration of 2 μM B, 3 μM each of A and C, and 6 μM C′.
# 206B62-2 = biological target: T3, 206B62-2; assay: as above
# Procedure: as §1
# 284B = biological target: T4, 284B; assay: as above
# Procedure: as §1
# [1] = biological target: T5, LHD101 chainA, split luciferase …; assay: split luciferase equilibrium titration in E. coli lysate, constant partner at 1 nM; first-named construct read as the titrated one; no unit beside the number, M from the axis '[Titrated] / M'
# 29B53 = biological target: T6, 29B53; assay: SEC titration (Superdex 200, normalised A230) of the complexes 274A53/274B53 and 29A53/29B53
# [2] = biological target: the molecule itself; assay: SEC titration of the protomer alone at several injection concentrations (Superdex 200, normalised A230); self-association
# LHD101 chainB = biological target: T7, LHD101 chainB; assay: BLI steady-state titration, biotinylated unfused LHD101B on a streptavidin sensor
# Procedure: Biolayer interferometry experiments were performed on an OctetRED96 BLI system (ForteBio, Menlo Park, CA). Streptavidin coated biosensors were first equilibrated for at least 10 minutes in Octet buffer (10 mM HEPES pH 7.4, 150 mM NaCl, 3 mM EDTA, 0.05% Surfactant P20) supplemented with 1 mg/ml Bovine Serum Albumin (SigmaAldrich). Enzymatically biotinylated designs were immobilized onto the biosensors by dipping the biosensors into a solution with 10-50 nM protein for 30-120 s. This was followed by dipping in fresh octet buffer to establish a baseline for 120 s. Titration experiments were performed at 25° C. while rotating at 1,000 r.p.m. Association of designs was allowed by dipping biosensors in solutions containing designed protein diluted in octet buffer until equilibrium was approached followed by dissociation by dipping the biosensors into fresh buffer solution in order to monitor the dissociation kinetics. Steady-state and global kinetic fits were performed using the manufacturer's software (Data Analysis 9.1) assuming a 1:1 binding model.
# 101B62 = biological target: T8, 101B62; assay: SEC binding assay (Superdex 200, normalised A230) of A, B and the mixture AB
# Procedure: as §1
# 101B14 = biological target: T9, 101B14; assay: as above
# Procedure: as §1
# LHD101 B8 = biological target: T10, LHD101 B8; assay: as above
# Procedure: as §1
# 101B4 = biological target: T11, 101B4; assay: as above
# Procedure: as §1
# 101B82 = biological target: T12, 101B82; assay: as above
# Procedure: as §1
binder,measurement,setting,value
206A54 (designed binder) HHHHHHGSGLNDIFEAQKIEWHEAENLYFQSGSTEDERRELEKVARKAIEAAREGNTDEVREQLQRALEIARESGTTEAVKLALEVVARVAIEAARRGNTDAVREALEVALEIARESGTTEAVKLALEVVARVAIEAARRGNTDAVREALAVAVKIALKSGTEEAFRLAKEVIKRVSDEAKKQGNEDAVKEAESFDAAAELILSLLKLFRELHERGTEIVVEVHINGRKTEIEVQGIDKRLLQIILEVIIEEIAREGPDKVEVNVHSGGQTWTFRYGGS,binding result,DF206,binds
same,binding result,LHD206 B62-1,binds
same,binding result,206B62-2,binds
"284A82 (designed binder, also called LHD284 A DHR82 N) HHHHHHGSGLNDIFEAQKIEWHEAENLYFQSGSDEEVQEAVERAEELREEAEELIKKARKTGDAELLRKALEALEEAVRAVEEAIKRNPDNDEAVETAVRLARELKKVAEELQERAKKTGDAELLKLALRALEVAVRAVELAIKSNPDNDEAVETAVRLAKELLKVAILLAKRAQETGDKELEKLARRALEVAKRAVELAIKSNPDNKEARILKLLLELAELLIELALRGTIIIVEVHINGERQTKYLILAPVEELLKHLERIEEKIKREGASEVEVKVTSGGTTWTFNIKGS",binding result,284B,binds
"LHD101 chainB, split luciferase reporter construct (designed binder, not shown: N-terminal Strep-tag and sfGFP; GS-linker and smBiT or lgBiT) GRQEKVLKSIEETVRKMGVTMETHRSGNEVKVVIKGLHESQQEQLLEDVLRTAEKQGVRVRIRFKGDTVTIVVRE",Kd,[1],8 nM and 11 nM
"29A53 (designed binder, also called LHD29A53) TWQWVLINISEEARQLIEKAVRAISKKEGTEVHFEKDDGVLHIRVKNLHEKRAREIHKVAKLILEVAAAERIVRERPGSNLAKKALEIILRAAEELAKADVDAALEAAVRAAEKVVREQPGSNLAKKALEIILRAAEELAKLPDPEALKEAVKAAEKVVREQPGSELAKKALEIIERAAEELKKSPDPEAQKEAKKAEQKVREERPGSSGSHHHHHH",binding result,29B53,binds
same,binding result,[2],binds
101A21 (designed binder) HHHHHHGSGLNDIFEAQKIEWHEAENLYFQSGSSEKEKVEELAQRIREQLPDTELAREAQELADEARKSDDSEALKVVYLALRIVQQLPDTELAREALELAKEAVKSTDSEKLKVVYLALRVVQQLPDTEEARKALEIAKEAVKADAQILLAIARAVLKMGVEMEVHPSGNEVKVVIKGLHIKQQRQLYRDVREAAKKAGVEVEIEVEGDTVTIVVRE,binding result,LHD101 chainB,binds
same,binding result,101B62,binds
same,binding result,101B14,binds
same,binding result,LHD101 B8,binds
same,binding result,101B4,binds
same,binding result,101B82,binds
same,binding result,[2],no binding
